Data set [1] deals with Cep3Δ (lacks zinc cluster) (Saccharomyces cerevisiae, UniProt P40969 48-608). Briefly: EMSA.
For data set [2], the target named is T1, Cep3 (Cep3 1-608, full-length) (Saccharomyces cerevisiae, UniProt P40969 1-608). Briefly: EMSA. (In EMSA bound probe runs differently from free probe, usually more slowly.)
Data set [3] addresses T1, Cep3 (Cep3 1-608, full-length). The data set is described as follows: competition.

Where a chain is given by its changes, count along the chain named.

T1 sequence (P40969 whole entry): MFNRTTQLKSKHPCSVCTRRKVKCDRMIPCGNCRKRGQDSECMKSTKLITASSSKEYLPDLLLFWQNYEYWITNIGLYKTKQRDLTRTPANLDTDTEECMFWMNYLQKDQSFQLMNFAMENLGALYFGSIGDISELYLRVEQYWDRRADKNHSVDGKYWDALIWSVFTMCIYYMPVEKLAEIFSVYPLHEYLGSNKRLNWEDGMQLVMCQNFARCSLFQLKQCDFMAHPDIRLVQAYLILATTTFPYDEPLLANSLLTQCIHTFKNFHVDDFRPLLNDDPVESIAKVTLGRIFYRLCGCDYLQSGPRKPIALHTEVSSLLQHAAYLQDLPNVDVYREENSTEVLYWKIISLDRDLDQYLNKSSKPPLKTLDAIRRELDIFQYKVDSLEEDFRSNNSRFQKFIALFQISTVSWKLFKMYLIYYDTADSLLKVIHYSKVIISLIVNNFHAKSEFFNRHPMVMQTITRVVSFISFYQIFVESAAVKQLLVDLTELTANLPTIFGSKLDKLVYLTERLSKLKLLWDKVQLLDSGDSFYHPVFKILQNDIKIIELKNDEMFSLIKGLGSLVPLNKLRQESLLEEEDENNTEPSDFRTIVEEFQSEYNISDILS
Chain of Cep3Δ (lacks zinc cluster) (P40969 48-608, stated change not applied): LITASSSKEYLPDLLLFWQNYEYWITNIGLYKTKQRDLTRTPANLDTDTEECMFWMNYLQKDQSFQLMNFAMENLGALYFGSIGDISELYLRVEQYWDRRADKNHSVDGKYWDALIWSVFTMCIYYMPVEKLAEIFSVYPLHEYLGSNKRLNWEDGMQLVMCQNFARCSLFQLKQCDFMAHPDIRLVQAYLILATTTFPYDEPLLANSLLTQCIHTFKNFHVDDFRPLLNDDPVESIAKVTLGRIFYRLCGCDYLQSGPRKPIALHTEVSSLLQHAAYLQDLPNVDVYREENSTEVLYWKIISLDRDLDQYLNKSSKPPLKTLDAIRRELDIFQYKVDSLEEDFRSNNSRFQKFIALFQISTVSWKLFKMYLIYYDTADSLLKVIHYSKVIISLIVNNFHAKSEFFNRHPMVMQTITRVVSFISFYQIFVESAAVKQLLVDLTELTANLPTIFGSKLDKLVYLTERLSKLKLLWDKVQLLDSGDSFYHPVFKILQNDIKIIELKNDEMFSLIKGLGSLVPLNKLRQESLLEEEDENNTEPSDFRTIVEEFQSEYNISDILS

B1: native CDEIII probe (dsDNA)
DNA 1: AAATATTAGTGTATTTGATTTCCGAAAGTTAAA
DNA 2: TTTAACTTTCGGAAATCAAATACACTAATATTT
On to B1, for which the binding result is recorded as “no binding” in data set [1] and “binds” in data set [2].

B2: site 1 mutant (dsDNA)
DNA 1: B1 DNA 1 with C22G, C23A, G24T
DNA 2: B1 DNA 2 with C10A, G11T, G12C
With B2, the binding result in data set [3] is reported as “no binding”.

B3: native CDEIII competitor (dsDNA)
DNA 1: B1 DNA 1
DNA 2: B1 DNA 2
Take B3: the binding result in data set [3] is reported as “binds”.

B4: site 2 mutant (dsDNA)
DNA 1: B1 DNA 1 with T10A, G11A, T12C, A13T
DNA 2: B1 DNA 2 with T21A, A22G, C23T, A24T
On to B4, for which the binding result in data set [3] is given as “binds”.

The values are drawn from paper PMC2246632.
